Data on 20 molecules can be found in patent publication US20100216715A1 (Novo Nordisk, published 2010).

The chains are these.
T1: human beta-Klotho (human, UniProt Q86Z14 1-1044)
T1 sequence (looked up): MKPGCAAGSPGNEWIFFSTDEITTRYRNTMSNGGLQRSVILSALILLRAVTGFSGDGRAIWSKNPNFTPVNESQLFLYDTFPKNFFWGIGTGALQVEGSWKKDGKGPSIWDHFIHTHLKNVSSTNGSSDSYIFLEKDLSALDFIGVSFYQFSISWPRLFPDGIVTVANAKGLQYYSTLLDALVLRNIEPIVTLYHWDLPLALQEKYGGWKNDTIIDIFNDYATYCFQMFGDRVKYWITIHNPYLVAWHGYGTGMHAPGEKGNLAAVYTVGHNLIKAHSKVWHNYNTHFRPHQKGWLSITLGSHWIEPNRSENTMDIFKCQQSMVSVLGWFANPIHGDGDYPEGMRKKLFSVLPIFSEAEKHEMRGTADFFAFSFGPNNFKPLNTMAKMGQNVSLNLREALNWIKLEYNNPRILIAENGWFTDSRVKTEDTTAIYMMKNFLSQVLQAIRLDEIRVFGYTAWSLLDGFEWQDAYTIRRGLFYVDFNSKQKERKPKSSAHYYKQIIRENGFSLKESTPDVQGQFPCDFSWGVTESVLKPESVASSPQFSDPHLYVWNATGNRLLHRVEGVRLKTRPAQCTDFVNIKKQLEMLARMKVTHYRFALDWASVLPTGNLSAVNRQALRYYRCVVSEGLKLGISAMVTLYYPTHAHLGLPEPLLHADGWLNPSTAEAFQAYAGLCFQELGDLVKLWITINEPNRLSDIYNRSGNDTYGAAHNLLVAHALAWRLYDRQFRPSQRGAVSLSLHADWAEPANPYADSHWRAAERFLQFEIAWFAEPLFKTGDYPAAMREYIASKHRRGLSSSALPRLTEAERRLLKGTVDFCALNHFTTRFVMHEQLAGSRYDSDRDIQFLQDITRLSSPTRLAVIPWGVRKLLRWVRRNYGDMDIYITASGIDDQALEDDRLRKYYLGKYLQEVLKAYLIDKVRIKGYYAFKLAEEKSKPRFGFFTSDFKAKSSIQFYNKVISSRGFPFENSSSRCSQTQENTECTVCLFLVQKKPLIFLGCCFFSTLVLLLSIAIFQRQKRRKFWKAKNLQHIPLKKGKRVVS

B1: (145aP, 145bM, L146V, P149E, G151E, I152D, A154R, P155G, Q156H, P157L, P158E, D159S, V160D, G161M, S162F, D164S, S167E, M168T, V169D, G170S, P171M, S172D, … (ligand)
chain: MHPIPDSSPLLQFGGQVRQRYLYTDDAQQTEAHLEIREDGTVGGAADQSPESLLQLKALKPGVIQILGVKTSRFLCQRPDGALYGSLHFDPEACSFRELLLEDGYNVYQSEAHGLPLHLPGNKSPHRDPAPRGPARFLPLPGLPPAPMVPEEPEDLRGHLESDMFSSPLETDSMDPFGLVTGLEAVRSPSFEK
B2: (-14E, -13E, -12A, -11E, -10A, -9G, -8G, -7A, -6G, -5G, -4S, -3G, -2G, -1S, K56R, 59R, 69R, 122R) FGF21 derivative of Example 51 (ligand)
chain: EEAEAGGAGGSGGSHPIPDSSPLLQFGGQVRQRYLYTDDAQQTEAHLEIREDGTVGGAADQSPESLLQLRALRPGVIQILGVRTSRFLCQRPDGALYGSLHFDPEACSFRELLLEDGYNVYQSEAHGLPLHLPGNRSPHRDPAPRGPARFLPLPGLPPALPEPPGILAPQPPDVGSSDPLSMVGPSQGRSPSYAS
modifications: N-alpha-1-[(S)-4-carboxy-4-(17-carboxy-heptadecanoylamino)-butyryl] on the N-terminal alpha amino group
B3: (D102N) Met-FGF21 (ligand)
chain: MHPIPDSSPLLQFGGQVRQRYLYTDDAQQTEAHLEIREDGTVGGAADQSPESLLQLKALKPGVIQILGVKTSRFLCQRPDGALYGSLHFDPEACSFRELLLENGYNVYQSEAHGLPLHLPGNKSPHRDPAPRGPARFLPLPGLPPALPEPPGILAPQPPDVGSSDPLSMVGPSQGRSPSYAS
B4: D102T Met-FGF21 (ligand)
chain: MHPIPDSSPLLQFGGQVRQRYLYTDDAQQTEAHLEIREDGTVGGAADQSPESLLQLKALKPGVIQILGVKTSRFLCQRPDGALYGSLHFDPEACSFRELLLETGYNVYQSEAHGLPLHLPGNKSPHRDPAPRGPARFLPLPGLPPALPEPPGILAPQPPDVGSSDPLSMVGPSQGRSPSYAS
B5: K122C Met-FGF21 derivative of Example 4 (ligand)
chain: MHPIPDSSPLLQFGGQVRQRYLYTDDAQQTEAHLEIREDGTVGGAADQSPESLLQLKALKPGVIQILGVKTSRFLCQRPDGALYGSLHFDPEACSFRELLLEDGYNVYQSEAHGLPLHLPGNCSPHRDPAPRGPARFLPLPGLPPALPEPPGILAPQPPDVGSSDPLSMVGPSQGRSPSYAS
modifications: S-122-[1-(2-{2-[2-(2-{2-[2-(2-{2-[(S)-4-carboxy-4-(17-carboxy-heptadecanoylamino)-butyrylamino]-ethoxy}-ethoxy)-acetylamino]-ethoxy}-ethoxy)-acetylamino]-ethylcarbamoyl}-ethyl)-2,5-dioxo-pyrrolidin-3-yl] on the thiol of Cys122
B6: (M168S) Met-FGF21 (ligand)
chain: MHPIPDSSPLLQFGGQVRQRYLYTDDAQQTEAHLEIREDGTVGGAADQSPESLLQLKALKPGVIQILGVKTSRFLCQRPDGALYGSLHFDPEACSFRELLLEDGYNVYQSEAHGLPLHLPGNKSPHRDPAPRGPARFLPLPGLPPALPEPPGILAPQPPDVGSSDPLSSVGPSQGRSPSYAS
B7: (M168A) Met-FGF21 (ligand)
chain: MHPIPDSSPLLQFGGQVRQRYLYTDDAQQTEAHLEIREDGTVGGAADQSPESLLQLKALKPGVIQILGVKTSRFLCQRPDGALYGSLHFDPEACSFRELLLEDGYNVYQSEAHGLPLHLPGNKSPHRDPAPRGPARFLPLPGLPPALPEPPGILAPQPPDVGSSDPLSAVGPSQGRSPSYAS
B8: A26E Met-FGF21 (ligand)
chain: MHPIPDSSPLLQFGGQVRQRYLYTDDEQQTEAHLEIREDGTVGGAADQSPESLLQLKALKPGVIQILGVKTSRFLCQRPDGALYGSLHFDPEACSFRELLLEDGYNVYQSEAHGLPLHLPGNKSPHRDPAPRGPARFLPLPGLPPALPEPPGILAPQPPDVGSSDPLSMVGPSQGRSPSYAS
B9: Q27E Met-FGF21 (ligand)
chain: MHPIPDSSPLLQFGGQVRQRYLYTDDAEQTEAHLEIREDGTVGGAADQSPESLLQLKALKPGVIQILGVKTSRFLCQRPDGALYGSLHFDPEACSFRELLLEDGYNVYQSEAHGLPLHLPGNKSPHRDPAPRGPARFLPLPGLPPALPEPPGILAPQPPDVGSSDPLSMVGPSQGRSPSYAS
B10: (D24K) Met-FGF21 (ligand)
chain: MHPIPDSSPLLQFGGQVRQRYLYTKDAQQTEAHLEIREDGTVGGAADQSPESLLQLKALKPGVIQILGVKTSRFLCQRPDGALYGSLHFDPEACSFRELLLEDGYNVYQSEAHGLPLHLPGNKSPHRDPAPRGPARFLPLPGLPPALPEPPGILAPQPPDVGSSDPLSMVGPSQGRSPSYAS
B11: (N121Q) Met-FGF21 (ligand)
chain: MHPIPDSSPLLQFGGQVRQRYLYTDDAQQTEAHLEIREDGTVGGAADQSPESLLQLKALKPGVIQILGVKTSRFLCQRPDGALYGSLHFDPEACSFRELLLEDGYNVYQSEAHGLPLHLPGQKSPHRDPAPRGPARFLPLPGLPPALPEPPGILAPQPPDVGSSDPLSMVGPSQGRSPSYAS
B12: M168L Met-FGF21 (ligand)
chain: MHPIPDSSPLLQFGGQVRQRYLYTDDAQQTEAHLEIREDGTVGGAADQSPESLLQLKALKPGVIQILGVKTSRFLCQRPDGALYGSLHFDPEACSFRELLLEDGYNVYQSEAHGLPLHLPGNKSPHRDPAPRGPARFLPLPGLPPALPEPPGILAPQPPDVGSSDPLSLVGPSQGRSPSYAS
B13: (Q15F) Met-FGF21 (ligand)
chain: MHPIPDSSPLLQFGGFVRQRYLYTDDAQQTEAHLEIREDGTVGGAADQSPESLLQLKALKPGVIQILGVKTSRFLCQRPDGALYGSLHFDPEACSFRELLLEDGYNVYQSEAHGLPLHLPGNKSPHRDPAPRGPARFLPLPGLPPALPEPPGILAPQPPDVGSSDPLSMVGPSQGRSPSYAS
B14: (N121D) Met-FGF21 (ligand)
chain: MHPIPDSSPLLQFGGQVRQRYLYTDDAQQTEAHLEIREDGTVGGAADQSPESLLQLKALKPGVIQILGVKTSRFLCQRPDGALYGSLHFDPEACSFRELLLEDGYNVYQSEAHGLPLHLPGDKSPHRDPAPRGPARFLPLPGLPPALPEPPGILAPQPPDVGSSDPLSMVGPSQGRSPSYAS
B15: (179F, 180E, 181R) Met-FGF21 (ligand)
chain: MHPIPDSSPLLQFGGQVRQRYLYTDDAQQTEAHLEIREDGTVGGAADQSPESLLQLKALKPGVIQILGVKTSRFLCQRPDGALYGSLHFDPEACSFRELLLEDGYNVYQSEAHGLPLHLPGNKSPHRDPAPRGPARFLPLPGLPPALPEPPGILAPQPPDVGSSDPLSMVGPSQGRSPSFER
B16: (S71C, L166F, S167G, M168L, 169aT, P171L, S172E, Q173A, G174V, Y179F, A180E, S181K) Gly-FGF21 (ligand)
chain: GHPIPDSSPLLQFGGQVRQRYLYTDDAQQTEAHLEIREDGTVGGAADQSPESLLQLKALKPGVIQILGVKTCRFLCQRPDGALYGSLHFDPEACSFRELLLEDGYNVYQSEAHGLPLHLPGNKSPHRDPAPRGPARFLPLPGLPPALPEPPGILAPQPPDVGSSDPFGLVTGLEAVRSPSFEK
B17: (S71C, D102E, N121Q, L166F, S167G, M168L, 169aT, P171L, S172E, Q173A, G174V, Y179F, A180E, S181K) Ala-FGF21 (ligand)
chain: AHPIPDSSPLLQFGGQVRQRYLYTDDAQQTEAHLEIREDGTVGGAADQSPESLLQLKALKPGVIQILGVKTCRFLCQRPDGALYGSLHFDPEACSFRELLLEEGYNVYQSEAHGLPLHLPGQKSPHRDPAPRGPARFLPLPGLPPALPEPPGILAPQPPDVGSSDPFGLVTGLEAVRSPSFEK
B18: (166F, 167G, 168L, 169aT, 171L, 172E, 173A, 174V, 179F, 180E, 181K) (Compound Z) (ligand)
chain: MHPIPDSSPLLQFGGQVRQRYLYTDDAQQTEAHLEIREDGTVGGAADQSPESLLQLKALKPGVIQILGVKTSRFLCQRPDGALYGSLHFDPEACSFRELLLEDGYNVYQSEAHGLPLHLPGNKSPHRDPAPRGPARFLPLPGLPPALPEPPGILAPQPPDVGSSDPFGLVTGLEAVRSPSFEK
B19: (-1G, 71C, 166F, 167G, 168L, 169aT, 171L, 172E, 173A, 174V, 179F, 180E, 181K) FGF21 derivative of Example 15 (ligand)
chain: GHPIPDSSPLLQFGGQVRQRYLYTDDAQQTEAHLEIREDGTVGGAADQSPESLLQLKALKPGVIQILGVKTCRFLCQRPDGALYGSLHFDPEACSFRELLLEDGYNVYQSEAHGLPLHLPGNKSPHRDPAPRGPARFLPLPGLPPALPEPPGILAPQPPDVGSSDPFGLVTGLEAVRSPSFEK
modifications: S-71-({2-[2-(2-{2-[2-(2-{2-[(S)-4-carboxy-4-(17-carboxy-heptadecanoylamino)-butyrylamino]-ethoxy}-ethoxy)-acetylamino]-ethoxy}-ethoxy)-acetyl-amino]-ethylcarbamoyl}-methyl) on the thiol of Cys71
B20: (169aT, 171L, 172E, 173A, 174V, 179F, 180E, 181K) Met-FGF21 (ligand)
chain: MHPIPDSSPLLQFGGQVRQRYLYTDDAQQTEAHLEIREDGTVGGAADQSPESLLQLKALKPGVIQILGVKTSRFLCQRPDGALYGSLHFDPEACSFRELLLEDGYNVYQSEAHGLPLHLPGNKSPHRDPAPRGPARFLPLPGLPPALPEPPGILAPQPPDVGSSDPLSMVTGLEAVRSPSFEK

The target of this test is T1, human beta-Klotho. In words: cell-based or functional assay.
Take B1: the “pERK-HEK293-Beta-klotho without HSA [EC50 (nM)] Median Value” (from here on “pERK-HEK293-Beta-klotho without HSA”) was found to be 17 nM.

For B2, the “pERK-HEK293-Beta-klotho without HSA” value worked out at 12 nM.

Consider B3, for which the “pERK-HEK293-Beta-klotho without HSA” value was 0.7 nM.

Consider B4, for which the “pERK-HEK293-Beta-klotho without HSA” value stood at 1.7 nM.

As to B5, the “pERK-HEK293-Beta-klotho without HSA” value is 0.9 nM.

With B6, the “pERK-HEK293-Beta-klotho without HSA” value amounted to 100 nM.

As to B7, the “pERK-HEK293-Beta-klotho without HSA” value came out at 100 nM.

For B8, the “pERK-HEK293-Beta-klotho without HSA” value worked out at 4.7 nM.

Turning to B9, the “pERK-HEK293-Beta-klotho without HSA” value worked out at 2.2 nM.

In the case of B10, the “pERK-HEK293-Beta-klotho without HSA” value stood at 6.7 nM.

As to B11, the “pERK-HEK293-Beta-klotho without HSA” value was 1 nM.

Consider B12, for which the “pERK-HEK293-Beta-klotho without HSA” value worked out at 1.4 nM.

B13: the “pERK-HEK293-Beta-klotho without HSA” value worked out at 3.3 nM.

Take B14: the “pERK-HEK293-Beta-klotho without HSA” value is 1.2 nM.

Consider B15, for which the “pERK-HEK293-Beta-klotho without HSA” value came out at 5.9 nM.

Take B16: the “pERK-HEK293-Beta-klotho without HSA” value was 1.4 nM.

As for B17, the “pERK-HEK293-Beta-klotho without HSA” value stood at 3.3 nM.

B18: the “pERK-HEK293-Beta-klotho without HSA” value was 1 nM.

Consider B19, for which the “pERK-HEK293-Beta-klotho without HSA” value was 1.6 nM.

In the case of B20, the “pERK-HEK293-Beta-klotho without HSA” value was 3.9 nM.
